Test results as given in US6894149 (PROTEIN DESIGN LABS, dated 2005).

B1: K8-355 (antibody, mouse IgG1, V domains shown)
VH: QIQLVQSGPELKKPGETVKISCKASKYTFTNYGMNWVKQAPGKVLRWMGWINTYTGEPTYADDFKGRFAFSLETSASTAYLQINNLKNEDMATYFCATTTLITYYFDYWGQGTTLTVSS
VL: DIQMTQTTSSLSASLGDRVTISCRSSQDISKYLNWYQQKPDGTVKLLIYYTSRLHSGVPSRFSGSGSGTDYSLTISNLEQEDIATYFCQQGDTVPWTFGGGTKLEIK

Assays:
[1] = target: HLA-DR on solid tumor cell lines C32, HT-144 (melanoma) and OVCAR-5 (ovarian) (human); experiment: cell-based or functional assay
[2] = target: HLA-DR on solid tumor cell lines C32, HT-144 (melanoma) and OVCAR-5 (ovarian) (human, UniProt P01903 26-254; P01911 30-266); experiment: cell-based or functional assay

Molecule	specific cell death in C32 and HT-144 cells, 24 hour assay, 10 µg/ml [1]	specific cell death in C32 and HT-144 cells, 24 hour assay, 10 µg/ml [2]
1D10 (antibody)	5 to 15%	
L227 (anti-HLA-DR β, ATCC HB-96) (antibody)	40%	
B1		~40%
